Source: US20240174712A1, “COMPOSITIONS AND METHODS FOR PURIFYING ALPHA-1 ANTITRYPSIN USING PEPTIDE LIGANDS” (North Carolina State University, priority 2022, published 2024)
No end group written: not given here.

Key:
human AAT = target: T1, human AAT (Homo sapiens, UniProt P01009); assay: Static binding capacity and affinity of peptide-Toyopearl resins (AAT adsorption isotherms, Langmuir fit); conditions: pure AAT in PBS at pH 7.4; Langmuir isotherm fit
T1 construct: purchased CSL Behring (King of Prussia, PA, USA)
T1 sequence (P01009 25-418): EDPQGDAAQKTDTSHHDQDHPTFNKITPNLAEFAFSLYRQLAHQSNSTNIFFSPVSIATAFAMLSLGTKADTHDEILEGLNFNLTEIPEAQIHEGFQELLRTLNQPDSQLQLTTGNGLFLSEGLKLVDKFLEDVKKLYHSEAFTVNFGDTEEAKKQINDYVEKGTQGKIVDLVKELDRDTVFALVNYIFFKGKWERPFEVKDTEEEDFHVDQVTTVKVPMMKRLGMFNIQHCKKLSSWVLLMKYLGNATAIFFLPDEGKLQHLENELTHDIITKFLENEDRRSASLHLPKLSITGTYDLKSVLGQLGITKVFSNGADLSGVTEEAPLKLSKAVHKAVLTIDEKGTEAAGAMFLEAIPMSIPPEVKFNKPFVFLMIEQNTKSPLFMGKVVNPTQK
Procedure: Static binding capacity and affinity of peptide-Toyopearl resins. […] Aliquots of 50 μL of peptide-Toyopearl resin were transferred in a tube, swollen in 20% v/v aqueous methanol, washed in MilliQ water, and finally equilibrated in PBS at pH 7.4. The resin aliquots were individually incubated with 0.5 mL of a solution of AAT at different concentrations (0.1, 0.25, 0.5, 0.75, 1.0, 1.5, 2.0, and 5.0 mg/mL) for 1.5 hrs at room temperature under gentle rotation. After incubation, the resin aliquots were centrifuged and the supernatants collected as unbound (UB) fraction; the resins were also washed with 0.5 mL of PBS for 30 min, and the supernatants were combined with the corresponding UB fractions. These were finally analyzed by Micro BCA Protein Assay kit to determine the concentration C* of unbound AAT in solution at the equilibrium with the resin, from which the amount q of bound AAT per volume of resin was determined by mass balance. The values of q vs. C* were plotted and fit using a Langmuir isotherm (Equation 1) to determine the values of maximum binding capacity (Qmax) and affinity dissociation constant (KD)).
Evaluation of AAT-binding peptides via in vitro and in silico AAT binding studies. […] Toyopearl resin was selected for ligand conjunction owing to its high chemical and mechanical stability as well as low non-specific protein adsorption, which make it an ideal substrate for direct peptide conjugation and protein chromatography.

[1] = target: T2, Human Alpha-1 antitrypsin (AAT) (human, UniProt P01009 25-418); assay: dynamic binding capacity at 10% breakthrough, PBS pH 7.4, residence time 5 min
T2 construct: Pure AAT in buffer, as used in the isotherm and breakthrough studies; also called α-1 antitrypsin; human AAT
T2 sequence (P01009 25-418 limits assumed): as the sequence (P01009 25-418) above
Procedure: (§1) Dynamic binding capacity of peptide Toyopearl resins. The dynamic binding capacity at 10% breakthrough (DBC_{10%}, mg of AAT per mL resin) of the selected peptide-Toyopearl resins and the control AAT Select resin was measured. A volume of 0.1 mL of resin was wet packed in a Vici Jour PEEK column, washed with 10 column volumes (CVs) of 20% v/v ethanol, deionized water (3 CVs), and finally equilibrated with 10 CVs of binding buffer. The binding buffers used in this study were (i) 0.15M NaCl in 20 mM Bis-Tris HCl buffer at pH 6.0, (ii) PBS buffer at pH 7.4, and (iii and iv) 0.15M NaCl in 50 mM Tris HCl buffer at pH 7.4 or pH 8.0. A volume of 2 mL of solution of human AAT at 1 mg/mL in PBS buffer was continuously loaded on the column at the flow rate of either 0.05 mL/min (residence time, RT: 2 min) or 0.02 mL/min (RT: 5 min). After loading, the resin was washed with 10 CVs of binding buffer at the flow rate of 0.1 mL/min. AAT elution was then performed with 20 CVs of PBS in 2 M MgCl₂ at pH 7.4 at the flow rate of 0.2 mL/min. The resin was regenerated with 10 CVs of glycine buffer at pH 2.0 at the flow rate of 0.2 mL/min. The effluents were continuously monitored by UV spectrometry at 280 nm and the resulting chromatograms were utilized to calculate the DBC_{10%} of AAT.
(§2) Evaluation of AAT-binding peptides via dynamic binding measurements. Following the equilibrium binding studies, the selected peptide-Toyopearl resins were evaluated under dynamic conditions to evaluate the interplay of kinetic factors—chiefly, the AAT transport within the chromatographic particles and the formation of AAT:peptide complexes—on the resultant binding capacity. To that end, the dynamic binding capacity at 10% breakthrough (DBC_{10%}, mg of AAT per mL of resin) of the peptide-Toyopearl resins was measured at two values of residence time (RT), namely 2 and 5 min, and four different buffer compositions, namely 20 mM Bis-Tris HCl buffer (0.15M NaCl) at pH 6.0, PBS buffer at pH 7.4, and 50 mM Tris HCl buffer (0.15M NaCl) at pH 7.4 and 8.0, and compared with that of AAT Select from Cytiva (FIG. 4; the corresponding breakthrough curves are reported in FIG. 9).

[2] = target: T2, Human Alpha-1 antitrypsin (AAT); assay: dynamic binding capacity at 10% breakthrough, Tris buffer pH 7.4, residence time 2 or 5 min
[3] = target: T2, Human Alpha-1 antitrypsin (AAT); assay: dynamic binding capacity at 10% breakthrough, PBS pH 7.4, residence time 2 min
Procedure: as §1, §2

[4] = target: T2, Human Alpha-1 antitrypsin (AAT); assay: static adsorption isotherm, pure AAT in PBS pH 7.4, Langmuir fit
Procedure: Static binding capacity and affinity of peptide-Toyopearl resins. The selected sequences were synthesized on Toyopearl AF-Amino 650 M resin as described herein and evaluated via isotherm binding studies of AAT in non-competitive mode (e.g., pure AAT in PBS at pH 7.4) as described in prior work. Aliquots of 50 μL of peptide-Toyopearl resin were transferred in a tube, swollen in 20% v/v aqueous methanol, washed in MilliQ water, and finally equilibrated in PBS at pH 7.4. The resin aliquots were individually incubated with 0.5 mL of a solution of AAT at different concentrations (0.1, 0.25, 0.5, 0.75, 1.0, 1.5, 2.0, and 5.0 mg/mL) for 1.5 hrs at room temperature under gentle rotation. After incubation, the resin aliquots were centrifuged and the supernatants collected as unbound (UB) fraction; the resins were also washed with 0.5 mL of PBS for 30 min, and the supernatants were combined with the corresponding UB fractions. These were finally analyzed by Micro BCA Protein Assay kit to determine the concentration C* of unbound AAT in solution at the equilibrium with the resin, from which the amount q of bound AAT per volume of resin was determined by mass balance. The values of q vs. C* were plotted and fit using a Langmuir isotherm (Equation 1) to determine the values of maximum binding capacity (Qₘₐₓ) and affinity dissociation constant (KD)).

| Kd [4] | Qmax [4] | Molecule | other results |
| --- | --- | --- | --- |
|  |  | NHNKIHG-Toyopearl: peptide ligand NHNKIHG conjugated on Toyopearl AF-Amino-650M resin (NHNKIHG-{Toyopearl AF‑Amino‑650M resin}) | Qmax (mgAAT per mLR) (human AAT): 6.3 mgAAT per mLR |
|  |  | KFHAWNG-Toyopearl: peptide ligand KFHAWNG conjugated on Toyopearl AF-Amino-650M resin (KFHAWNG-{Toyopearl AF‑Amino‑650M resin}) | Qmax (mgAAT per mLR) (human AAT): 8.9 mgAAT per mLR |
| 510 nM |  | Alpha-1 Antitrypsin Select resin | DBC10% [1]: 12.8 mg/mL; DBC10% [2]: 12 mg/mL; DBC10% [3]: 12.3 mg/mL; Qmax (mgAAT per mLR) [4]: 13.5 |
|  |  | SHWHWAG-Toyopearl: peptide ligand SHWHWAG conjugated on Toyopearl AF-Amino-650M resin (SHWHWAG-{Toyopearl AF‑Amino‑650M resin}) | Qmax (mgAAT per mLR) (human AAT): 7.0 mgAAT per mLR |
|  |  | KHAWIFG-Toyopearl: peptide ligand KHAWIFG conjugated on Toyopearl AF-Amino-650M resin (KHAWIFG-{Toyopearl AF‑Amino‑650M resin}) | Qmax (mgAAT per mLR) (human AAT): 7.2 mgAAT per mLR |
| 2090 nM | 12.9 mgAAT per mLR | WHAKKSKFG-{Toyopearl AF‑Amino‑650M resin} (not fully specified; printed as WHAKKSKFG-Toyopearl) [WHAKKSKFG-Toyopearl] | DBC10% [1]: 12.7 mg/mL; DBC10% [3]: 10.3 mg/mL |
| 950 nM | 16.3 mgAAT per mLR | WHAKKSHFG-{Toyopearl AF‑Amino‑650M resin} (not fully specified; printed as WHAKKSHFG-Toyopearl) [WHAKKSHFG-Toyopearl] | DBC10% [1]: 12.5 mg/mL; DBC10% [3]: 9.3 mg/mL |
| 1420 nM | 7.2 mgAAT per mLR | KHAWIFG-{Toyopearl AF‑Amino‑650M resin} (not fully specified; printed as KHAWIFG-Toyopearl) [KHAWIFG-Toyopearl] |  |
| 4710 nM | 8.7 mgAAT per mLR | AAHFHKG-{Toyopearl AF‑Amino‑650M resin} (not fully specified; printed as AAHFHKG-Toyopearl) [AAHFHKG-Toyopearl] |  |
| 630 nM | 15.8 mgAAT per mLR | KWKHSHKWG-{Toyopearl AF‑Amino‑650M resin} (not fully specified; printed as KWKHSHKWG-Toyopearl) [KWKHSHKWG-Toyopearl] | DBC10% [1]: 11.6 mg/mL; DBC10% [3]: 8.9 mg/mL |
| 6700 nM | 3.51 mgAAT per mLR | ANAKIKKKG-{Toyopearl AF‑Amino‑650M resin} (not fully specified; printed as ANAKIKKKG-Toyopearl) [ANAKIKKKG-Toyopearl] |  |
| 870 nM | 10.2 mgAAT per mLR | KAWFKHWNG-{Toyopearl AF‑Amino‑650M resin} (not fully specified; printed as KAWFKHWNG-Toyopearl) [KAWFKHWNG-Toyopearl] |  |
| 3280 nM | 7 mgAAT per mLR | SHWHWAG-{Toyopearl AF‑Amino‑650M resin} (not fully specified; printed as SHWHWAG-Toyopearl) [SHWHWAG-Toyopearl] |  |
| 2480 nM | 8.9 mgAAT per mLR | KFHAWNG-{Toyopearl AF‑Amino‑650M resin} (not fully specified; printed as KFHAWNG-Toyopearl) [KFHAWNG-Toyopearl] |  |
| 2320 nM | 6.3 mgAAT per mLR | NHNKIHG-{Toyopearl AF‑Amino‑650M resin} [NHNKIHG-Toyopearl] |  |
| 3630 nM | 9.4 mgAAT per mLR | FSHHSWKFG-{Toyopearl AF‑Amino‑650M resin} (not fully specified; printed as FSHHSWKFG-Toyopearl) [FSHHSWKFG-Toyopearl] |  |
| 4670 nM | 5.1 mgAAT per mLR | FEKWAKAHG-{Toyopearl AF‑Amino‑650M resin} (not fully specified; printed as FEKWAKAHG-Toyopearl) [FEKWAKAHG-Toyopearl] |  |
| 3620 nM | 9.1 mgAAT per mLR | KHSKAIAAG-{Toyopearl AF‑Amino‑650M resin} (not fully specified; printed as KHSKAIAAG-Toyopearl) [KHSKAIAAG-Toyopearl] |  |
